Article PMC6925194

Assay: CHO co-transfection, flow cytometry fusion index
Settings: glycan lost; control: wild-type ASCT2

Protein	other: SYN1-induced cell-cell fusion
ASCT2 (Alanine, Serine, Cysteine Transporter 2; SLC1A5): N163H (protein) parent chain: MVADPPRDSKGLAAAEPTANGGLALASIEDQGAAAGGYCGSRDQVRRCLRANLLVLLTVVAVVAGVALGLGVSGAGGALALGPERLSAFVFPGELLLRLLRMIILPLVVCSLIGGAASLDPGALGRLGAWALLFFLVTTLLASALGVGLALALQPGAASAAINASVGAAGSAENAPSKEVLDSFLDLARNIFPSNLVSAAFRSYSTTYEERNITGTRVKVPVGQEVEGMNILGLVVFAIVFGVALRKLGPEGELLIRFFNSFNEATMVLVSWIMWYAPVGIMFLVAGKIVEMEDVGLLFARLGKYILCCLLGHAIHGLLVLPLIYFLFTRKNPYRFLWGIVTPLATAFGTSSSSATLPLMMKCVEENNGVAKHISRFILPIGATVNMDGAALFQCVAAVFIAQLSQQSLDFVKIITILVTATASSVGAAGIPAGGVLTLAIILEAVNLPVDHISLILAVDWLVDRSCTVLNVEGDALGAGLLQNYVDRTESRSTEPELIQVKSELPLDPLPVPTEEGNPLLKHYRGPAGDATVASEKESVM	no change
ASCT2 (Alanine, Serine, Cysteine Transporter 2; SLC1A5): N212H (protein) parent chain: MVADPPRDSKGLAAAEPTANGGLALASIEDQGAAAGGYCGSRDQVRRCLRANLLVLLTVVAVVAGVALGLGVSGAGGALALGPERLSAFVFPGELLLRLLRMIILPLVVCSLIGGAASLDPGALGRLGAWALLFFLVTTLLASALGVGLALALQPGAASAAINASVGAAGSAENAPSKEVLDSFLDLARNIFPSNLVSAAFRSYSTTYEERNITGTRVKVPVGQEVEGMNILGLVVFAIVFGVALRKLGPEGELLIRFFNSFNEATMVLVSWIMWYAPVGIMFLVAGKIVEMEDVGLLFARLGKYILCCLLGHAIHGLLVLPLIYFLFTRKNPYRFLWGIVTPLATAFGTSSSSATLPLMMKCVEENNGVAKHISRFILPIGATVNMDGAALFQCVAAVFIAQLSQQSLDFVKIITILVTATASSVGAAGIPAGGVLTLAIILEAVNLPVDHISLILAVDWLVDRSCTVLNVEGDALGAGLLQNYVDRTESRSTEPELIQVKSELPLDPLPVPTEEGNPLLKHYRGPAGDATVASEKESVM	no change
ASCT2 (Alanine, Serine, Cysteine Transporter 2; SLC1A5): N163H/N212H (protein) parent chain: MVADPPRDSKGLAAAEPTANGGLALASIEDQGAAAGGYCGSRDQVRRCLRANLLVLLTVVAVVAGVALGLGVSGAGGALALGPERLSAFVFPGELLLRLLRMIILPLVVCSLIGGAASLDPGALGRLGAWALLFFLVTTLLASALGVGLALALQPGAASAAINASVGAAGSAENAPSKEVLDSFLDLARNIFPSNLVSAAFRSYSTTYEERNITGTRVKVPVGQEVEGMNILGLVVFAIVFGVALRKLGPEGELLIRFFNSFNEATMVLVSWIMWYAPVGIMFLVAGKIVEMEDVGLLFARLGKYILCCLLGHAIHGLLVLPLIYFLFTRKNPYRFLWGIVTPLATAFGTSSSSATLPLMMKCVEENNGVAKHISRFILPIGATVNMDGAALFQCVAAVFIAQLSQQSLDFVKIITILVTATASSVGAAGIPAGGVLTLAIILEAVNLPVDHISLILAVDWLVDRSCTVLNVEGDALGAGLLQNYVDRTESRSTEPELIQVKSELPLDPLPVPTEEGNPLLKHYRGPAGDATVASEKESVM	no change
